These results are taken from patent publication US20190309052A1 (Gilead, published 2019).

For one experiment, the target named is T1, HBx69-87 control peptide (Hepatitis B virus, UniProt P03165 69-87).
T1 construct: range 69-87; also called HBx69-87 peptide
T1 peptide: CALRFTSARRMETTVNAHQ
Nature of the experiment: ELISA with varying concentrations of peptide.

For experiment [1], the target named is T2, HBx AD38 (genotype D) residue 27-50 peptide (Hepatitis B virus genotype D).
T2 construct: also called HBx27-50; HBx27-50 peptide
T2 peptide: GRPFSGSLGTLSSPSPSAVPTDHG
As to the kind of experiment: ELISA, 100 ng/mL antibody with varying peptide concentration.

B1: HBx M19 mouse monoclonal anti-HBx antibody (antibody, V domains shown)
VH: EVQLQQSGPELVKPGASVKISCQASGYTFTDYYMNWVKQSHGKRLEWIGDINPNNGGTAYNQKFKGKATLTVDRSSSTAYMEVRSLTSEDSAVYFCALLAYWGQGTLVTVSA
VL: DVVMTQTPLSLPVSLGDQASISCRSSQSLVYSDGNTHLHWYLQKTGQSPKLLIYKASNRFSGVPDRFSGSGSGTDFTLKISRVEAEDLGVYFCSQSTHVPLTFGAGTKLELKR
notes: also called aHBx mAb; αHBx mAb
Regarding B1, the binding result is reported as “no binding (tested: 100 ng/mL antibody)” with HBx69-87 control peptide and “binds” in experiment [1].
